In the supplement of paper PMC9112550, “Optimization of the antimicrobial peptide Bac7 by deep mutational scanning” (BMC Biology, 2022):

Tested on: Escherichia coli TOP10
Test: shrunken log2 fold change of peptide-encoding DNA abundance (4.5 h post-induction vs induction); higher = less antimicrobial activity (less host growth inhibition)
Conditions: time post-induction: 4.5 h; library: site-saturation at positions 5, 18, 19, 20
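Further: peptides expressed intracellularly from a pBAD plasmid library in pooled LB shake-flask culture, induced with 0.3% L-arabinose, DNA abundance read by NGS, three biological replicates, DESeq2 with apeglm shrinkage.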

Sequence | shrunken log2 fold change
RRIRVRPPRLPRPRPRPDVCPRP | 0.0951
RRIRFRPPRLPRPRPRPCGNPRP | -0.0344
RRIRQRPPRLPRPRPRPLFTPRP | -0.426
RRIRYRPPRLPRPRPRPEPAPRP | 0.168
RRIRERPPRLPRPRPRPWYAPRP | -0.137
RRIRTRPPRLPRPRPRPCKSPRP | 0.075
RRIRCRPPRLPRPRPRPRMYPRP | -0.562
RRIRTRPPRLPRPRPRPWMAPRP | -0.295
RRIRPRPPRLPRPRPRPAQDPRP | 0.0233
RRIRMRPPRLPRPRPRPGLNPRP | 0.223
RRIRKRPPRLPRPRPRPTDSPRP | -0.0461
RRIRQRPPRLPRPRPRPPPVPRP | 0.607
RRIRLRPPRLPRPRPRPPNMPRP | -0.076
RRIRDRPPRLPRPRPRPYCFPRP | -0.744
RRIRWRPPRLPRPRPRPWIAPRP | -0.11
RRIRPRPPRLPRPRPRPFMNPRP | -0.198
RRIRTRPPRLPRPRPRPRQIPRP | 0.0896
RRIRYRPPRLPRPRPRPMTDPRP | -0.0354
RRIRYRPPRLPRPRPRPPNYPRP | -0.523
RRIRVRPPRLPRPRPRPFLVPRP | -0.527
RRIRRRPPRLPRPRPRPCREPRP | 0.0134
RRIRQRPPRLPRPRPRPCWMPRP | -0.408
RRIRCRPPRLPRPRPRPRGQPRP | -0.0954
RRIRMRPPRLPRPRPRPEYYPRP | -0.218
RRIRMRPPRLPRPRPRPDLVPRP | 1.01

Sequence | shrunken log2 fold change
RRIRVRPPRLPRPRPRPQVKPRP | -0.016
RRIRKRPPRLPRPRPRPMVMPRP | 0.0746
RRIRIRPPRLPRPRPRPRESPRP | 0.133
RRIRARPPRLPRPRPRPRRQPRP | 0.453
RRIRIRPPRLPRPRPRPFPCPRP | -0.0282
RRIRPRPPRLPRPRPRPVYFPRP | -0.671
RRIRIRPPRLPRPRPRPRHEPRP | 0.0234
RRIRDRPPRLPRPRPRPEVMPRP | 0.152
RRIRTRPPRLPRPRPRPAVRPRP | 0.203
RRIRCRPPRLPRPRPRPRPEPRP | 0.44
RRIRARPPRLPRPRPRPVQIPRP | -0.0414
RRIRLRPPRLPRPRPRPCWTPRP | -0.252
RRIRSRPPRLPRPRPRPVWWPRP | 0.131
RRIRDRPPRLPRPRPRPRPTPRP | 0.381
RRIRIRPPRLPRPRPRPVEHPRP | 0.0873
RRIRCRPPRLPRPRPRPSCIPRP | -0.253
RRIRPRPPRLPRPRPRPICKPRP | -0.081
RRIRLRPPRLPRPRPRPECMPRP | 0.442
RRIRYRPPRLPRPRPRPYNAPRP | -0.471
RRIRMRPPRLPRPRPRPRHKPRP | 0.402
RRIRERPPRLPRPRPRPYWIPRP | -0.376
RRIRTRPPRLPRPRPRPGDCPRP | -0.195
RRIRTRPPRLPRPRPRPSNQPRP | -0.14
RRIRERPPRLPRPRPRPMVEPRP | -0.0932
RRIRARPPRLPRPRPRPHTQPRP | -0.0761

Sequence | shrunken log2 fold change
RRIRARPPRLPRPRPRPPQAPRP | 1.03
RRIRDRPPRLPRPRPRPQTEPRP | 0.125
RRIRIRPPRLPRPRPRPKQRPRP | 0.0202
RRIRERPPRLPRPRPRPQWMPRP | 0.0273
RRIRMRPPRLPRPRPRPYKWPRP | -0.141
RRIRDRPPRLPRPRPRPRVKPRP | 0.103
RRIRGRPPRLPRPRPRPAEIPRP | 0.076
RRIRLRPPRLPRPRPRPTQFPRP | 0.192
RRIRPRPPRLPRPRPRPLGGPRP | 1.53
RRIRERPPRLPRPRPRPLDFPRP | -0.353
RRIRPRPPRLPRPRPRPVIYPRP | -0.063
RRIRHRPPRLPRPRPRPGFPPRP | 0.336
RRIRVRPPRLPRPRPRPNPDPRP | -0.0161
RRIRPRPPRLPRPRPRPCPRPRP | 0.0438
RRIRKRPPRLPRPRPRPKSLPRP | 0.107
RRIRRRPPRLPRPRPRPKPNPRP | 0.531
RRIRWRPPRLPRPRPRPIDTPRP | 0.00736
RRIRKRPPRLPRPRPRPFPYPRP | -0.135
RRIRVRPPRLPRPRPRPMHLPRP | -0.167
RRIRYRPPRLPRPRPRPTVMPRP | -0.176
RRIRCRPPRLPRPRPRPPTEPRP | 1.77
RRIRTRPPRLPRPRPRPWEHPRP | -0.069
RRIRPRPPRLPRPRPRPARQPRP | 0.253
RRIRERPPRLPRPRPRPPDPPRP | 0.106
RRIRWRPPRLPRPRPRPRMTPRP | 0.394

Sequence | shrunken log2 fold change
RRIRWRPPRLPRPRPRPELLPRP | 0.485
RRIRTRPPRLPRPRPRPYKAPRP | -1.77
RRIRGRPPRLPRPRPRPCPGPRP | -0.0819
RRIRNRPPRLPRPRPRPPRNPRP | 0.196
RRIRVRPPRLPRPRPRPFVEPRP | -0.361
RRIRVRPPRLPRPRPRPAWPPRP | 0.537
RRIRSRPPRLPRPRPRPDILPRP | 0.115
RRIRRRPPRLPRPRPRPTGHPRP | 0.236
RRIRARPPRLPRPRPRPAFSPRP | 0.215
RRIRARPPRLPRPRPRPVNEPRP | 0.356
RRIRHRPPRLPRPRPRPYYEPRP | 0.0317
RRIRKRPPRLPRPRPRPRWWPRP | 0.316
RRIRWRPPRLPRPRPRPDRAPRP | 0.487
RRIRRRPPRLPRPRPRPRLTPRP | 0.439
RRIRMRPPRLPRPRPRPAVWPRP | 1.08
RRIRIRPPRLPRPRPRPVATPRP | -0.374
RRIRKRPPRLPRPRPRPTHRPRP | 1.15
RRIRQRPPRLPRPRPRPMLCPRP | -0.00319
RRIRWRPPRLPRPRPRPWPIPRP | 0.0793
RRIRVRPPRLPRPRPRPFVQPRP | -0.0696
RRIRDRPPRLPRPRPRPVSFPRP | -0.191
RRIRLRPPRLPRPRPRPCRSPRP | -0.0599
RRIRDRPPRLPRPRPRPEVSPRP | 0.3
RRIRPRPPRLPRPRPRPDTYPRP | -0.623
RRIRVRPPRLPRPRPRPPRMPRP | 0.167

Sequence | shrunken log2 fold change
RRIRCRPPRLPRPRPRPFKGPRP | 0.0401
RRIRSRPPRLPRPRPRPCWIPRP | -0.0651
RRIRQRPPRLPRPRPRPMWHPRP | -0.18
RRIRFRPPRLPRPRPRPEIYPRP | 0.0026
RRIRIRPPRLPRPRPRPPFMPRP | -0.256
RRIRMRPPRLPRPRPRPWVFPRP | 0.152
RRIRVRPPRLPRPRPRPYGFPRP | -0.222
RRIRLRPPRLPRPRPRPNTQPRP | -0.0732
RRIRKRPPRLPRPRPRPQQRPRP | 0.0562
RRIRKRPPRLPRPRPRPALVPRP | 0.623
RRIRTRPPRLPRPRPRPEFRPRP | -0.0543
RRIRVRPPRLPRPRPRPWRHPRP | 0.288
RRIRERPPRLPRPRPRPDNWPRP | -0.103
RRIRVRPPRLPRPRPRPGGEPRP | 0.386
RRIRKRPPRLPRPRPRPFMHPRP | 0.0291
RRIRLRPPRLPRPRPRPNELPRP | 0.0122
RRIRGRPPRLPRPRPRPISPPRP | -0.0176
RRIRHRPPRLPRPRPRPPNPPRP | 0.238
RRIRPRPPRLPRPRPRPRTEPRP | 0.306
RRIRHRPPRLPRPRPRPGIGPRP | -0.0787
RRIRRRPPRLPRPRPRPIYEPRP | 0.0785
RRIRYRPPRLPRPRPRPITTPRP | 0.0271
RRIRCRPPRLPRPRPRPSRFPRP | -0.0991
RRIRCRPPRLPRPRPRPVCMPRP | -0.119
RRIRWRPPRLPRPRPRPRKCPRP | 0.4

Sequence | shrunken log2 fold change
RRIRTRPPRLPRPRPRPRIFPRP | -0.158
RRIRWRPPRLPRPRPRPQNIPRP | -0.882
RRIRYRPPRLPRPRPRPQGWPRP | 0.031
RRIRRRPPRLPRPRPRPVAMPRP | 0.342
RRIRTRPPRLPRPRPRPSNTPRP | -0.732
RRIRTRPPRLPRPRPRPASVPRP | 0.00118
RRIRDRPPRLPRPRPRPNHWPRP | 0.0735
RRIRYRPPRLPRPRPRPADEPRP | -0.451
RRIRLRPPRLPRPRPRPCHNPRP | 0.0575
RRIRHRPPRLPRPRPRPNQYPRP | -0.663
RRIRKRPPRLPRPRPRPVQNPRP | 0.49
RRIRHRPPRLPRPRPRPFTNPRP | -0.0272
RRIRDRPPRLPRPRPRPSQGPRP | -0.0558
RRIRERPPRLPRPRPRPSLVPRP | -0.0847
RRIRFRPPRLPRPRPRPKCSPRP | -0.0194
RRIRDRPPRLPRPRPRPDGYPRP | -0.0204
RRIRNRPPRLPRPRPRPAFLPRP | -0.0726
RRIRCRPPRLPRPRPRPLRNPRP | 0.272
RRIRRRPPRLPRPRPRPFAIPRP | 0.102
RRIRLRPPRLPRPRPRPHWFPRP | -0.08
RRIRKRPPRLPRPRPRPHGCPRP | 0.352
RRIRDRPPRLPRPRPRPPPDPRP | 1.14
RRIRRRPPRLPRPRPRPQSTPRP | -0.095
RRIRYRPPRLPRPRPRPQFMPRP | -0.074
RRIRFRPPRLPRPRPRPNTGPRP | -0.165
